In the supplement of paper PMC9170038:

System: K4 kissing-loop RNA reporter
Assay: apparent KD of K4 kissing-loop reporter; higher = weaker reporter binding
Settings: Eterna round: R107
Protocol: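 RNA-MaP round R107: designed RNA switches with theophylline, tryptophan, arginine or FMN aptamers are transcribed on-chip within common flanks. They are titrated with a labelled K4 kissing-loop RNA reporter in RNA-MaP buffer (100 mM Tris pH 7.5, 80 mM KCl, 4 mM MgCl2), without ligand or with the indicated ligand. Median apparent KD per design.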

[1] = input ligand: theophylline 20 uM
[2] = input ligand: tryptophan 2.4 mM
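Further: bound reporter read as fluorescence of individual clusters on recovered sequencing chips by microscopy, with normalized cluster intensities fitted with a binding model.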

Sequence	apparent KD of K4 kissing-loop reporter (input ligand: FMN 200 uM)	apparent KD of K4 kissing-loop reporter (input ligand: arginine 13.2 mM)	apparent KD of K4 kissing-loop reporter (input ligand: none)	apparent KD of K4 kissing-loop reporter [1]	apparent KD of K4 kissing-loop reporter [2]
AAAAGCAGAAAGACGCAUUAAAGAACCGAAGGAGCGCGGAAUUACGCAGGUAGGUCGCGGGAUAAGCGAGUGAUGUUCGCGAAAG [Arginine A Same State; Euphoria Solution]	60.7 nM	105 nM	72.1 nM	89.5 nM	53.6 nM
UGUAUGUGAUUUGAUACCAGACCAGCUGGUGUUUCAAGAGUGAUGUUCUUGUAGGUUUGGGUCCCUUGGCAGCAAAUCGCAUACU [KL-SSTheoB15]	159 nM	122 nM	152 nM	122 nM	131 nM
CACCAUGAAUUCUCUAGGAGUGAUGUUUUUCGAGGACCGGUACGGCCGCCACUCGGACGAGGACCCUGGGAGCGGCGAAGCGGCU [nigmullin]	235 nM	104 nM	238 nM	246 nM	150 nM
CUUGAUGUAGCGGCCGCCACUCUAGAUCCGCAUCGGAUGAGGUACUUGAAGUGAUGUUUUGAGGUGAGGACCGGGCUCUAAAGAA [theeternabot_sameState_KL_Trp_B_16]	750 nM	455 nM	564 nM	452 nM	420 nM
AGCGGCCAGUCGGCCGCCACUCCGGGCAGUGAUGUUGCGAAGUGUCUACUAGAGUGAUGUUCUAAGAGGACCGGGACUGACGUAU [Exclusion Tryptophan B Gf 11]	434 nM	394 nM	534 nM	476 nM	332 nM
UGUAUGUGAUUUGAUACCAGACCAGCUGGUGGUUCACGAGUGAUGUUCGUGUUGGUUUGGGUCCCUUGGCAGCAAAUCGCAUACU [KL-SSTheoB12]	159 nM	121 nM	144 nM	128 nM	140 nM
GCCGUAGAUUGAAGGAGCGGGCCGUAGUGAUGUUACGCCAAUUUAUCUUUUCUUGAUGUGGCCCAGGUAGGUCGCAAUCUACGGC	241 nM	204 nM	216 nM	207 nM	193 nM
UUUGUAGAGGGAAGGAGCGUGAAAGAGAAAGAAUAUAGUGAUGUUAUAUAGAAGAAAGAAUCACAGGUAGGUCGCCCGGAGGAGG [SSArgB.E]	463 nM	436 nM	458 nM	563 nM	295 nM
UGUGUACCGGGAAGGAGCGUGAAUGAGAAUGGAUAUAGUGAUGUUAUGUAUACGAACGAAUCGCAGGUAGGUCGCCCGGAUCCCU [SSArgB.Z]	513 nM	320 nM	677 nM	396 nM	461 nM
UGAUAGGACAGAAGGAGCGGUAGUGAUGUUACCAAAAGGAUAAGGUGUCAAAAGACACCCUACCAGGUAGGUCGCUGUCCUAUCU	124 nM	112 nM	107 nM	85.1 nM	109 nM
GUUAAUAGUAGUGAUGUUACAAUAGUUUGUGAGGAUAUCCCGAAAGGGAGAAGGCACAAACAAAUAGAUUCUCACAAAUAUUUAC [FMN A exclusion]	191 nM	185 nM	243 nM	238 nM	146 nM
UGUCAUUGGUCUGAUACCAGUUGAUGACGAAUACGUCAACUGGAGUGAUGUUCCAAUAACAACCCUUGGCAGCAGACCGAUGACU [MAT - Same State Theophlline B - Mod of Eli - D3]	557 nM	494 nM	530 nM	953 nM	563 nM
CAUUCACGGCGAGUCGAAGUGAUGUUUCGGCGAGGACCGGUACGGCCGCCACUCGGAUAAAUAUAGCUUAUCACAUACACUUUCG [theeternabot_exclusion_KL_Trp_A_27]	159 nM	128 nM	140 nM	186 nM	132 nM
AAGUGUCAUUAGACACACCGAUGUAUAAACUAGGAUAUGCUGAUAAGCAGAAGGAGUGAUGUUCCUUUCAUCAUCGGAAUUAAAU [#06 K4 FMN A Exclusion]	301 nM	161 nM	160 nM	175 nM	144 nM
AUUGUACAGGGAAGGAGCGUCGACCAGUGAUGUUGGAGUUAAAUACCAGUGAUGUUGGUUAGGCAGGUAGGUCGCCCUCAAGUAG [#10 K4 Arginine B Exclusion]	180 nM	126 nM	141 nM	219 nM	118 nM
GAUCAUAGCACGGCCGCCACUGAUAUGCCGUGCUAUACGAGUGAUGUUCGUAAUUAUACGGGUAUCAGGACCGGGUGCAACGGUA [Tryp B SS t2]	149 nM	89.3 nM	113 nM	167 nM	112 nM
GACGUGCGAGAGACCGCUCUACCUUGAGAUCGAGGACCGGUACGGCCGCCACUCGGUGUUUAACGUCGAUCCCAGUGAUGUUGGA [theeternabot_sameState_KL_Trp_A_21]	521 nM	230 nM	429 nM	450 nM	234 nM
UGUCUACCGGGAAGGAGCGUGAAUGAUAAUGGAUAUAGUGAUGUUAUAUAUACGAACGAAUCGCAGGUAGGUCGCCCGGAUCCCU [SSArgB.W]	431 nM	419 nM	606 nM	431 nM	481 nM
AGAGUUAUGAGAGGAUAUGCGGCUAGUACUCAAAGAGUACUAGCAGCAGAGUGAUGUUCUGUGAAAGCAGAAGGUUCAUAACUCA [#06 K4 FMN B Same State]	124 nM	668 nM	627 nM	563 nM	641 nM
GUUUGCCGGUUCCGGAGUGAUGUUCCGGAUACCAGCAACUUCCUUUGCCCUUGGCAGCCGUAGCUAUACCGGAUGGCAGCUUCAG [Arrexean]	96.1 nM	82.7 nM	89.3 nM	86.7 nM	95.4 nM
GCCUUUUUUCGAGCUACAGCUCGAUUUGGUCGAGGACCGGUACGGCCGCCACUCGAAUGAUAGUGAUGUUAUCAUUAUGGCAUAA [JR_ExcTryptoA_Sub023]	196 nM	166 nM	176 nM	186 nM	152 nM
GCUAUGGUUGGAAGGAGCGUUGAAUUGUUGGUAAGAGUGAUGUUCGAUAGUGGAUAGUUGUAGCAGGUAGGUCGCCAACUAUAGC [KL-Arg B27]	377 nM	367 nM	532 nM	517 nM	395 nM
